Results reported in US20240376556, “BIOSENSORS FOR DETECTING AND/OR NEUTRALIZING BIOAVAILABLE URANIUM AND RELATED U-SENSITIVE GENETIC MOLECULAR COMPONENTS, GENE CASSETTES, VECTORS, GENETIC CIRCUITS, COMPOSITIONS, METHODS AND SYSTEMS” (LAWRENCE LIVERMORE NATIONAL SECURITY, LLC, published 2024).

Biological target: T1, UrpR (CCNA_01362), native in cells (Caulobacter crescentus NA1000)
T1 chain: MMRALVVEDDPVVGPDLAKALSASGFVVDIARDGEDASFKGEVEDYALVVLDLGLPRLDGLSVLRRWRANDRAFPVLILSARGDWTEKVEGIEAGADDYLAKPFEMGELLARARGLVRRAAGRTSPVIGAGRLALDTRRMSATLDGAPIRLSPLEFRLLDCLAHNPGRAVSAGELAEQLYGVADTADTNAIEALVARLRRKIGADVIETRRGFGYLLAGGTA
Test: cell_activity; P1361-gfp induction in wild type with 20 uM U; U induction abolished by CCNA_01362 deletion

B1: P1361 promoter (dsDNA)
DNA 1: GAACGATAGCGCCGCCTGCGAGCGCGACCTCAGGCCTCGGACGAAGCGCGTCCGGGGCCTTTTCTTGTCGATGTTCAGCGCCTGGTTACCGGCGATGGCGCGGTGTCAGCGTTCGGGCGTTGCGATGCGTCAGGAGCGTGTCAGGATGCCTGTGGAATCCTAAGCGCCATCACCCAGTCCCGATCTTTCC
DNA 2: GGAAAGATCGGGACTGGGTGATGGCGCTTAGGATTCCACAGGCATCCTGACACGCTCCTGACGCATCGCAACGCCCGAACGCTGACACCGCGCCATCGCCGGTAACCAGGCGCTGAACATCGACAAGAAAAGGCCCCGGACGCGCTTCGTCCGAGGCCTGAGGTCGCGCTCGCAGGCGGCGCTATCGTTC
activity: 10.5 fold
